Columns and labels:
P1 = biological target: T1, P1 (human); test: ELISA on coated MUC1-C/ECD antigen with or without peptide (indirect)
T1 construct: Synthetic overlapping peptide of MUC1-C/ECD; also called peptide P1
T1 peptide: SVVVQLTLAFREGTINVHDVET
Protocol: (§1) Characterized of 7B8 and 3D1 antibodies. Linear epitope mapping of 7B8 and 3D1 clones was performed using three overlapping peptides spanning the entire MUC1-C/ECD region (58 amino acids) were synthesized. ELISA assays were performed using 7B8 or 3D1 purified antibodies in the presence or absence of P1, P2 or P3 peptides. […] Conformational epitope mapping of 7B8 and 3D1 was performed using eight critical individual point mutants in the MUC1-C/ECD region by ELISA. […] These findings indicate that D19 is a part of the conformational core/pocket for 3D1 binding. ZR-75-1 breast carcinoma cells were used determine 7B8 or 3D1 antibody binding in a competitive format with MUC1-C/ECD and analyzed by FLOW. […] These findings indicate that the conformational binding epitopes of 7B8 and 3D1 are different. The sequencing results for hybridoma 3D1 is shown in FIG. 50 and is discussed in greater detail below.

P2 = biological target: T2, P2 (human); test: as above
T2 construct: Synthetic overlapping peptide of MUC1-C/ECD; also called peptide P2
T2 peptide: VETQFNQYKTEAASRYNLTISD
Protocol: as §1

P3 = biological target: T3, P3 (human); test: as above
T3 construct: Synthetic overlapping peptide of MUC1-C/ECD; also called peptide P3
T3 peptide: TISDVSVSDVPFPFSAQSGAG
Protocol: as §1

MUC1-C/ECD protein = biological target: T4, MUC1-C/ECD protein (human, UniProt P15941 1098-1155); test: ELISA, plates coated with the MUC1-C/ECD antigen; soluble MUC1-C/ECD protein also abrogated 3D1 binding to cells
T4 construct: also called MUC1-C/ECD antigen; the antigen
T4 sequence: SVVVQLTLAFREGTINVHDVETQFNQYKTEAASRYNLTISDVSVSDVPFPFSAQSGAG

B1: 441.3.3D1.D6.D11.B1.F10 (antibody, V domains shown)
VH: QVQLQQSGAELVRPGSSVKISCKTSGYAFSNFWMNWVKQRPGQGLEWIGQIYPGDGDTNYNGKFKGKATLTADKSSSTAYMQLSSLTSEASAVYFCARSYYRSAWFAYWGQGTLVSVSA
VL: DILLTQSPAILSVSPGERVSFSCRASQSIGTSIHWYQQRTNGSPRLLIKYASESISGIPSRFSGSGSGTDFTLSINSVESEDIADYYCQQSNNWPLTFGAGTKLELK
notes: Mouse hybridoma antibody; also called Anti-Muc-1; 536064-1
P1
  binding result: no binding
P2
  binding result: no binding
P3
  binding result: no binding
MUC1-C/ECD protein
  binding result: binds

— patent US20160340442A1 (Dana-Farber, published 2016)
